Molecular target: Andes virus Gc, wild type (Andes virus strain CHI-7913)
Experiment: sucrose gradient sedimentation

Andes virus Gc, wild type (natural protein)
stoichiometry N: 3

Reference: article PMC5082683
